B1: GST-p80CD (receptor)
chain: KKKPLCLQREAKVPHLPADKARGTQGPEQQHLLITAPSSSSSSLESSASALDRRAPTRNQPQAPGVEASGAGEARASTGSSDSSPGGHGTQVNVTCIVNVCSSSDHSSQCSSQASSTMGDTDSSPSESPKDEQVPFSKEECAFRSQLETPETLLGSTEEKPLPLGVPDAGMKPS
B2: p13^suc1 -agarose (other)
chain: SKSGVPRLLTASERERLEPFIDQIHYSPRYADDEYEYRHVMLPKAMLKAIPTDYFNPETGTLRILQEEEWRGLGITQSLGWEMYEVHVPEPHILLFKREKDYQMKFSQQRGG

Tests used:
cdk2 = cdk2 (human (endogenous, U937 cells); not …, UniProt P24941); experiment: in vitro translated 35S-labelled protein, pull-down with GST-p80CD on glutathione agarose
Method: (§1) U937 cells lysates (15×10⁶/assay) were prepared and affinity precipitated with the indicated fusion protein as described below. Whole cell extracts were prepared from 2×10⁶ U937 cells by boiling the cells in 100 μl of SDS-sample buffer. Proteins were resolved by 8.5% SDS-polyacrylamide gel electrophoresis, transferred to PVDF membrane, and probed with the indicated antibodies. The mock reaction contains GST-p60Δ8 without U937 cell lysates. […] The samples were subjected to 8.5% SDS-polyacrylamide gel electrophoresis and analyzed by a PhosphorImager. Ten percent of total ^35S-labeled protein (10% input) added to each binding reaction was loaded as a standard. […] The conditions utilized for this experiment were similar to those previously described (Dyson et al., 1989). Briefly, U937 cells were either treated without or with 0.1 nM TNF for 5 minutes. […] Precipitates bound to protein A/G sepharose beads were collected by centrifugation and washed four times in lysis buffer and one time in kinase buffer. The samples were subjected to 8.5% SDS-polyacrylamide gel electrophoresis and analyzed by a PhosphorImager and ImageQuant software.

cdc2 = cdc2 (human, UniProt P06493); experiment: as above
Method: as §1

cdk4 = cdk4 (human, UniProt P11802); experiment: precipitation of U937 cell extracts with p13^suc1 -agarose, immunoblot
Method: U937 cells (4×10^6) were lysed and precipitated with p13^suc1 agarose. Beads were collected by centrifugation, washed with lysis buffer, and boiled in the presence of SDS-sample buffer. […] Immunoreactive bands were detected using horseradish peroxidase-conjugated secondary antibodies and the Enhanced Chemiluminescence system (ECL). […] Equal amounts of U937 cell lysates were incubated with 25 μg of either GST bound to glutathione agarose (−) or p13^suc1-agarose (+) for 1 hour at 4° C. with shaking. The beads were collected by centrifugation, and the supernatant was once more centrifuged. An equal volume of the supernatant was affinity precipitated with GST-p60Δ15. The precipitates were washed extensively, and in vitro kinase assays with histone H1 (5 μg) were performed as described below. Proteins were separated by 8% SDS-polyacrylamide gel electrophoresis and analyzed by a PhosphorImager and ImageQuant software. […] Equal amounts of U937 cell lysates were incubated with either GST bound to glutathione agarose (−) or p13^suc1-agarose (+) for 1 hour at 4° C. with shaking. The beads were collected by centrifugation, and the supernatant was once more centrifuged. An equal volume of the supernatant was affinity precipitated with either GST-p60Δ8 or GST-p60Δ15. The precipitates were washed extensively, and in vitro kinase assays with Rb^110 (0.2 μg) were performed as described below.

| binding result (cdk2) | binding result (cdc2) | binding result (cdk4) | Binder |
| --- | --- | --- | --- |
| no binding | no binding | – | B1 |
| – | – | no binding | B2 |

— patent US5856161, “Tumor necrosis factor receptor-I-associated protein kinase and methods for its use” (Research Development Foundation, dated 1999)
